In the nanobody polyreactivity screen of Harvey et al. (2022):

Assay: yeast display, Sf9 membrane polyspecificity reagent, FACS + sequencing; frameworks hold sequencing errors
How it was run: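 Genes from sorted yeast were amplified by colony PCR, read by MiSeq 2 × 250 sequencing and filtered on CDR length. These cells carried a synthetic nanobody library in Saccharomyces cerevisiae BJ5465 and were sorted by FACS into low and high (top ~1%) gates on anti-HA and streptavidin fluorescence. Polyreactivity is labelled according to the gate of origin.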

| Sequence | polyreactivity (PSR sort gate) |
| --- | --- |
| QVQLVETGGGLVQAGGSLRLSCAASGTFHWYAMGWYRPAPGKERELVAAITGSGGNTYYADSVKGRFTISRDNAKNTVYLQMNSLKPEDTAVYYCAARIYTWSVQYTGYGYWGQGTQVTVSS | high polyreactivity |
| QVQLVETGGGLVQAGGSLRLSCAASGYIFYVYAMGWYRQPPGKERELVAAINSGDITYYADSVKGRFTISRDNAKNTVYLQMNRLKPEDTAVYFGATVLILIYDYWGQGTQVTVSS | low polyreactivity |
| QVQLVETGGGLVQAGGSLRLSCAASVFTFPTYTMGWYRQAPGKEREFVARITKRGGSTYYADSVKGRFTISRVNVKNTVYLQRKCVKPEDTAVYYCDAGFWWSSYGYWGQGSQVTVSS | high polyreactivity |
| QVQLVETGGGLVQAGGSLRLSCAGSVSIFNRNAMGWYRQAPGKERELVAAISNSGARTYYADSVKGRFTISRDNAKNTVYLQMNSLKPEDTAVYYCTAVRRRSKLYNYWGQGTQVTVSS | high polyreactivity |
| QVQLVETGGGLVQAGGSLRLSCAHSGSIFASNAMGWYRHAPGKEREFVAAIRYSGGITYYADSVKGRFTISRDNAKNTVYLQMTSLKPEDTAVYYCAAYGWGNRWYSRFDYWGQGTQVTVSS | high polyreactivity |
| QVQLVETGGGLVQAGGSLRLSCAPSGRIFGIYAMGWYRQAPGKERELVASITDGTITNYADSVKGRFTISRDNAKNTVYLQMNSLKPVDTAVYYFAAGTQAHAYVVRPIEMDYWGQGTQVTVSS | low polyreactivity |
| QVQLVETGGGLVQAGGSLRLSCAPSGSTFYYYVMGWYRPPPGNERELVAAINSGGSTYYADSVKGRFTISRDNAKNTVYLQMNSLKPEDTAVYYCAKSWSYWYQYFYWGQGTQVTVSS | low polyreactivity |
| QVQLVETGGGLVQAGGSLRLSCEASGTIFTYAMGWYRQAPRKERELVAVISWSGASTYYADSVKGRLTISRDNAKNSVYLQMNSLKTEDTAVYYCAVYRYYKLVHLYGFDYWGQGTQVTVSS | high polyreactivity |
| QVQLVETGGGLVQAGGSLRLSSAASGIIFKTYAMGWYRQARGKERELLAGIDYSGGGTSYADSVKGRFTISRDNAKNTVYLQMNSLKPEDTAVYYCNAEWWSWGSDSYTYDYPETYDYRGQGTQVTVSS | low polyreactivity |
| QVQLVETGGGLVQAGGSLSLSCAASGRTFGRYAMGWYRQAPGKERELVAAITWSGGSTYYADSVKGRFTISRDNAKNTVYLQMNSLKPEDTAVYYCAASGYPIYHDDYWGQGTQVTVSS | low polyreactivity |
| QVQLVETGGGLVQAGGTLRLAVLPPDLPSTLNDMGWYRQATGKERELVAAITRGGSTNYADSVKGRFTISRDNAKNTVYLLMNSLKPEDTAVYYCAARSAGWRDGGDYWGQGTQVTVSS | low polyreactivity |
| QVQLVETGGGLVQAGGTLRLSCAPSGLIVDLYAMGCYRQAPGKERELVATISGSGGSTYYADSEKGRFTISRDNAKNTVYLQMNSLKPEDTAFYYCAAVSVSSWYDDCGQGTQVTVSS | low polyreactivity |
| QVQLVETGGGLVQAGGTLRLSCAPSGRIFPYNDMGLYRQAPGKERELVAANSSGGTTDYADSVKGRFTISRDNAKNTVYLQMNSLKPEDTAVYYCAATYVYWTWGYDYWGQGTQVTVSS | low polyreactivity |
| QVQLVETGGRLGQAGGSLRLSCAASGRTFGYNAMGWYRQAPGKERELVAAISWSGTRTYYADSVKWRFTISRDNAKNTVYLQRNSLKPEDTAVYYCAARIAVYGGSYGWFDYWGQGTQVTVSS | high polyreactivity |
| QVQLVETGGVLVQAGGSLRLSCAASGRIFPPNAMGWSRQAPGKEREFVASINRSGGRTYYADSVKGRFTISRDNAKNTVYLQMNSLKPEDTAVYYCAATGGYSCPLGVSWKYEYWGQGNQVTVSS | low polyreactivity |
| QVQLVETGGVLVQAGGSLRLSCAASGRTFRYNAMGWYRPAPGKEREFVAAITWGGGSTYYADSVKGRFTISRDNAKNTVYLQMNSLKPEDTAVYYCNADYIGNYQSIYQYDYWGQGTQVTVSS | low polyreactivity |
| QVQLVETGGVLVQAGGSLSLSCAASGSTFGWYVMGWYRQAPGKERELVAAITYSGDSTYYADSVKGRFTISRDNAKNTVYLQMNSLKPEDTAVYYCAADLSGYGKRYDYWGQGNQVTVSS | low polyreactivity |
| QVQLVETGVGLVQAGGILRLSCAASGSTFTNNGIGWYRQAPGKEREVVATNSWDGDSTYYAYSVKGRFSISRDTAKNTVYLQMNSLKPEDTAVYYCAADEWGSDSALNFEYWGQGTQVTVSS | low polyreactivity |
| QVQLVETRGGLVQAGGSLRLSCAASGSIFRTNVMGRYRQAPGKERELVAAISRRGGSTYYADSVKGRFTISRDNAKNTVYLQMITLKPEDTAVYYCAASSSAYRDDYWGQGTQVTVSS | high polyreactivity |
| QVQLVETRGGLVQAGGSLRLTCAASGRTFEGYAMGWYRQAPGKEREFVAAITDGDSTYYADSVKGRFTISRDNAKNTVYLQMNSLKPEDTAVYYCAADRQTWYWYTAYLKYDYWGQGSQVTVSS | low polyreactivity |
| QVQLVETRGGLVQAGGTLRLSCAASGYTVYRYAKGWYRQAPGKERELVAGISRDGGSTYYADSVKGRFTISRDNAKNTVYLQMNSLNPEDTAVYYCAADKTRYRLGRDYWGQGTQVTVSS | low polyreactivity |
| QVQLVETRGGLVQAGGTLRLSFAASGSTFSYYTMGWYRHAPGTERELVGSIDSSGGSTYYADSVKGRFTISRDNAQNTVYLQMNSLKPEDTAVYYCATGDEWGYDYWGQGTQVTVSS | low polyreactivity |

| Sequence | polyreactivity (PSR sort gate) |
| --- | --- |
| QVQLVETVGGLVQAGFSLRLSCAASGFTYGAYAMGLYRQPPGKERELVAAITLRTGGSTYYADSVKGRFTISRDNAKYTVYLQMNSLKPEDTAVYYCAARVGLSPGGYGYWGQGTQVTVSS | high polyreactivity |
| QVQLVEYGGGLDQAGGSLRLSCAAYGLTFSPYAMGWYRQAPGKEMELVATITIGGSTKYADSVKGRVTISRDNAKNTVYLQMNSLKPEDTAVYYCAVRSGYVTRRYDYWGQGTQVTVSS | low polyreactivity |
| QVQLVGAGGGLVHAGGSLLLSCAASGFTLGSNAMGWYRQAPGKERALVAASSKSGGSTYYADSVKGRFTISRDNAKNTVYLQMTSLKPEDTAGYYCAARPIHYPPYYYWGQGTQVTVSS | high polyreactivity |
| QVQLVKSGGGLVQAGGSLRLSCAASGRIIDRNAMGWYRQAPGKERELVAAISSSGSTNYADSVKGRFTISRDNAKNTVYLQMNSLKPQDTAVYYCAARWRSVLAAGTRPVSFDYWGQGTQVTVSS | low polyreactivity |
| QVQLVKSGGGLVQAGGSLRLSCAASGRTFWGYAMGWYRQAPGKERELVAAISSGGDTTYADSVKGRCTISRDNAKNTVYLQMNSLKPEDTAVYYCAADRWIPVYILGADGYDYWGQGTHVTVSS | low polyreactivity |
| QVQLVKSGGGLVQAGGSLRLSCAASGSTFRYYVMGWYRQAPGKERELVATISRGGITKYADSVKGRFTSSRDNAKNTVYLQMHSLKPEDTAVYYCNTRGSRQGKFDYWGQGTQVTVSS | high polyreactivity |
| QVQLVQAGGGLVQAGGSLRLSSAPSGFTLYHYARGWYSQAPGKERQLVASITRSGASTYYPDSVKGRFTISRDNAKYTVYVQMNSLKPEDPAVYYCNKVRYTSSIWTYYDWGQGTQVTVSS | high polyreactivity |
| QVQLVQSGGCLVQAGGSLRLSCAASGSTFRYKAMGWYRQAPGKERELVATITGSGGSTYYADSVKGRFTISRDNAKNTVYLQMNSLKAEDTAVYYCNARYKRAAWRYDYWGQGTQVSVSS | high polyreactivity |
| QVQLVQSGGCLVQAGGSLRLSCAASGSTIGDNAMGWYRQAPGKERELDAAIDYSGGSTRYADSVKGRFTISRDNAKNTVYLQMNSLKPEDTAVYYCAADYASGSRLFPKTLDYWGQGTQVTVSS | low polyreactivity |
| QVQLVQSGGGLFQAGGSLRLSCAPSGSIFDPNALGWYRQAPAKERELVAAISSGGSRKYSDSVKGRFTISRDNAKNTVYLQMNRLIPEDTAVYYCDASPRQGMYYWGQGTQVTVSS | high polyreactivity |
| QVQLVQSGGGLVKAGGSLRLRCAASGFTFVKYAMGCYRQAPGKERELIAVISRRGGSTYYADSVKGRFTISRDNAKNTVYLQMNSLKPEDSAVYYCAGVYYLYSAWRYDYWGLGTQVTVSS | high polyreactivity |
| QVQLVQSGGGLVQAGGRLSLSCAASGRTIDTYAMGWYRQAPGKERELVAAITRRTYYADSVKGRFTISRDNAKNSVYLQMNSLKPEDTAVDYCAVRFLRKWTSSRHYGYWGQGTQVTLSS | high polyreactivity |
| QVQLVQSGGGLVQAGGSHRLSCAASGFIFPVYAMGWYRQPPGKERELFASMTTGGSTNYADSVKGRFTITRDNAKNSVYLQMNSLKPEDTAVYDCNQDTPASLANQYNYGGQGTQVTVSS | low polyreactivity |
| QVQLVQSGGGLVQAGGSLRLSCAAMGWYRQAPGKERELVATITWSGGSTYYADSVKGRFTISRDNAKNTVYLQMNSLKPEDTAVYYCNARATLLSPANTILGYDYWGQGTQVTVSS | low polyreactivity |
| QVQLVQSGGGLVQAGGSLRLSCAASGITFWYYAMGWYRQAPGKERELVAAITGGSTYYADSVKGRFTISRDNAKNTVYLQMNSLKPEDTAVYYCNADSLFEYLDYDYWGQGTQVTVSS | low polyreactivity |
| QVQLVQSGGGLVQAGGSLRLSCAASGRIFRYYGMGWYRQAPGKERELVAAISWNSGSTYYADSVKGRFTISRDNAKNTVYLQMNSLKPEDTAVYYCNKVLFISGYVRNYGEYEYWGQGTQVTVSS | high polyreactivity |
| QVQLVQSGGGLVQAGGSLRLSCAASGRIFVNNAMGWYIQAPGKERELVAAISVSGTTTYYADSVKGRFTISRDNAKNTVYLQMNSLKPEDTAVFYCAAEGSTYQGAPGVYYWGQGTQVTVSS | high polyreactivity |
| QVQLVQSGGGLVQAGGSLRLSCAASGRTFGTYAMGWYRQAPGKEREFVAVITNRGGRTYYADSVKGRFTISRDNAKNTVYLQMNSLKPEDTAVYYCTAVGRGWAFDYWGQGTQVTVSS | high polyreactivity |
| QVQLVQSGGGLVQAGGSLRLSCAASGRTFYYNAMGWYRQAPGKERELVAAITSTGGSTYYADSVKGRFTISRDNAKNTVYLQMNSLKPEDTAVYYCNTLGYTQTRGLDYWGQGTQVTVSS | low polyreactivity |
| QVQLVQSGGGLVQAGGSLRLSCAASGSIFDYNTMGWYRQAPGKERELVATISWSGDSTYYADSVKGRFTISRDNAKNTVYLQMNSLKPEDTAVYYCNADDPPGAPYYDSFDYRGDYWGQGTQVTVSS | low polyreactivity |
| QVQLVQSGGGLVQAGGSLRLSCAASGSTFSQYVMGWYRQARGKERELVAAINKNGGRTYYADSVKGRFTISRDNAKNTVYFQMISLKPEDTAVYYCAADVYGQDDYWGQGTQVTVSS | high polyreactivity |
